Read-outs that look alike come from different tables or passages of the source.
Experiments:
Experiment in all cases: cell-based or functional assay
[1] = molecular target: SARS-CoV-2 spike (S) protein, Omicron BA.4/5 (SARS-CoV-2) (UniProt P0DTC2)
[2] = molecular target: SARS-CoV-2 spike (S) protein, Omicron BA.4.6 (SARS-CoV-2) (UniProt P0DTC2)
[3] = molecular target: SARS-CoV-2 spike (S) protein, Omicron BA.2.75 (SARS-CoV-2) (UniProt P0DTC2)
[4] = molecular target: SARS-CoV-2 spike (S) protein, Omicron BA.2.3.20 (SARS-CoV-2) (UniProt P0DTC2)
[5] = molecular target: SARS-CoV-2 spike (S) protein, Omicron BJ.1 (SARS-CoV-2) (UniProt P0DTC2)
[6] = molecular target: SARS-CoV-2 spike (S) protein, Victoria strain (SARS-CoV-2) (UniProt P0DTC2)
[7] = molecular target: SARS-CoV-2 spike (S) protein, Omicron BA.2 (SARS-CoV-2) (UniProt P0DTC2)
[8] = molecular target: SARS-CoV-2 spike (S) protein, Omicron BA.2.75.2 (SARS-CoV-2) (UniProt P0DTC2)
[9] = molecular target: SARS-CoV-2 spike (S) protein, Omicron BA.2.75 (SARS-CoV-2) (UniProt P0DTC2); remark: listed apart in the source
[10] = molecular target: SARS-CoV-2 spike (S) protein, Omicron BA.2 (SARS-CoV-2) (UniProt P0DTC2); remark: listed apart in the source
[11] = molecular target: SARS-CoV-2 Gamma spike (S) protein (SARS-CoV-2) (UniProt P0DTC2)
[12] = molecular target: SARS-CoV-2 spike (S) protein, Omicron BA.4/5 (SARS-CoV-2) (UniProt P0DTC2); remark: listed apart in the source
[13] = molecular target: SARS-CoV-2 Alpha spike (S) protein (SARS-CoV-2) (UniProt P0DTC2)
[14] = molecular target: SARS-CoV-2 Delta spike (S) protein (SARS-CoV-2) (UniProt P0DTC2)
[15] = molecular target: SARS-CoV-2 Omicron BA.1 spike (S) protein of the live isolate (SARS-CoV-2) (UniProt P0DTC2)
[16] = molecular target: SARS-CoV-2 spike (S) protein, Omicron BA.4.6 (SARS-CoV-2) (UniProt P0DTC2); remark: listed apart in the source
[17] = molecular target: SARS-CoV-2 spike (S) protein, Omicron BA.1.1 (SARS-CoV-2) (UniProt P0DTC2)
[18] = molecular target: SARS-CoV-2 Victoria spike (S) protein (SARS-CoV-2) (UniProt P0DTC2)
[19] = molecular target: SARS-CoV-2 Beta spike (S) protein (SARS-CoV-2) (UniProt P0DTC2)
[20] = molecular target: SARS-CoV-2 spike (S) protein, Victoria strain (SARS-CoV-2) (UniProt P0DTC2); remark: listed apart in the source
[21] = molecular target: SARS-CoV-2 spike (S) protein, Omicron BA.1 (SARS-CoV-2) (UniProt P0DTC2)
[22] = molecular target: SARS-CoV-2 Omicron BA.2 spike (S) protein (SARS-CoV-2) (UniProt P0DTC2)
[23] = molecular target: SARS-CoV-2 spike (S) protein, Omicron BA.2 (SARS-CoV-2) (UniProt P0DTC2); remark: listed apart in the source
[24] = molecular target: SARS-CoV-2 Omicron BA.1.1 spike (S) protein (SARS-CoV-2) (UniProt P0DTC2)
[25] = molecular target: SARS-CoV-2 spike (S) protein, Omicron BA.3 (SARS-CoV-2) (UniProt P0DTC2)
[26] = molecular target: SARS-CoV-2 spike (S) protein, Omicron BA.2.75 (SARS-CoV-2) (UniProt P0DTC2); remark: listed apart in the source
[27] = molecular target: SARS-CoV-2 spike (S) protein, Omicron BA.2 (SARS-CoV-2) (UniProt P0DTC2); remark: listed apart in the source
[28] = molecular target: SARS-CoV-2 Gamma (P.1) spike (S) protein (SARS-CoV-2) (UniProt P0DTC2)
[29] = molecular target: SARS-CoV-2 Beta (B.1.351) spike (S) protein (SARS-CoV-2) (UniProt P0DTC2)
[30] = molecular target: SARS-CoV-2 Omicron BA.3 spike (S) protein, pseudovirus construct (SARS-CoV-2) (UniProt P0DTC2)
[31] = molecular target: SARS-CoV-2 Omicron (BA.1) spike (S) protein, live virus isolate (SARS-CoV-2) (UniProt P0DTC2)
[32] = molecular target: SARS-CoV-2 Omicron BA.2 spike (S) protein, pseudovirus construct (SARS-CoV-2) (UniProt P0DTC2)
[33] = molecular target: SARS-CoV-2 Omicron BA.1 spike (S) protein, pseudovirus construct (SARS-CoV-2) (UniProt P0DTC2)
[34] = molecular target: SARS-CoV-2 spike (S) protein, Omicron BA.2.75 (SARS-CoV-2) (UniProt P0DTC2); remark: listed apart in the source
[35] = molecular target: SARS-CoV-2 Omicron BA.3 spike (S) protein (SARS-CoV-2) (UniProt P0DTC2)
[36] = molecular target: SARS-CoV-2 Omicron BA.1 spike (S) protein of the pseudovirus (SARS-CoV-2) (UniProt P0DTC2)
[37] = molecular target: SARS-CoV-2 Alpha (B.1.1.7) spike (S) protein (SARS-CoV-2) (UniProt P0DTC2)
[38] = molecular target: SARS-CoV-2 Omicron BA.1.1 spike (S) protein, pseudovirus construct (SARS-CoV-2) (UniProt P0DTC2)
[39] = molecular target: SARS-CoV-2 Omicron BA.4/5 spike (S) protein (SARS-CoV-2) (UniProt P0DTC2)

Omi-29 (antibody), sequence (VH): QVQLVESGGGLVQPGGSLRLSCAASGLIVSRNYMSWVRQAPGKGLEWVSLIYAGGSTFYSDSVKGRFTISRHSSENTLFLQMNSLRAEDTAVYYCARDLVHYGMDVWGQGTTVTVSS
Omi-29 (antibody), sequence (VL): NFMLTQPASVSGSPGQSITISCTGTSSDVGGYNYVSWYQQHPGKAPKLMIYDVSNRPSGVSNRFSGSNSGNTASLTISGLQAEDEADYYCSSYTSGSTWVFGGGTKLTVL
AZD8895 (antibody), sequence (VH): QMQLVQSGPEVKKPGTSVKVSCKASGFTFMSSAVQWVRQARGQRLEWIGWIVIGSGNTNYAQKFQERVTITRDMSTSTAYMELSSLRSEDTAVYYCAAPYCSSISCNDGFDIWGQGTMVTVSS
AZD8895 (antibody), sequence (VL): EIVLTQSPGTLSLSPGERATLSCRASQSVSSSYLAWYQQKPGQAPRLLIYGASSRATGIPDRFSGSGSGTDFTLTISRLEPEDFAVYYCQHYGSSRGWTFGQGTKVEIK
Omi-32 (antibody), sequence (VH): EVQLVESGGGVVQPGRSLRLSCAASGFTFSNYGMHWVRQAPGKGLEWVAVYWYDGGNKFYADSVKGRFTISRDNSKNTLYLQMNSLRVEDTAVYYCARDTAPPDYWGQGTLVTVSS
Omi-32 (antibody), sequence (VL): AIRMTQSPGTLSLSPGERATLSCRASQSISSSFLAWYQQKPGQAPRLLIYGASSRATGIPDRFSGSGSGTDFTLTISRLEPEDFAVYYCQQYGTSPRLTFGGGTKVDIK

Substance: AZD8895 (antibody)
- IC50, pseudoviral neutralization [1]: > 10 µg/mL
- IC50, pseudoviral neutralization [2]: > 10 µg/mL
- IC50, pseudoviral neutralization [3]: 0.008 µg/mL
- IC50, pseudoviral neutralization [4]: 0.007 µg/mL
- IC50, pseudoviral neutralization [5]: 0.114 µg/mL
- IC50, pseudoviral neutralization [6]: 0.001 µg/mL
- IC50, pseudoviral neutralization [7]: 1.33 µg/mL
- IC50, pseudoviral neutralization [8]: > 10 µg/mL
- pseudovirus neutralisation IC50 [9]: 0.008 µg/mL
- pseudovirus neutralisation IC50 [10]: 1.99 µg/mL
- IC50, authentic virus neutralization [11]: 0.046 µg/mL
- IC50, pseudoviral neutralization [12]: > 10 µg/mL
- pseudovirus neutralisation IC50 [12]: > 10 µg/mL
- IC50, authentic virus neutralization [13]: 0.011 µg/mL
- IC50, authentic virus neutralization [14]: 0.003 µg/mL
- IC50, authentic virus neutralization [15]: 1.15 µg/mL
- IC50, pseudoviral neutralization [16]: > 10 µg/mL
- IC50, pseudoviral neutralization [17]: 0.1 µg/mL
- pseudovirus neutralisation IC50 [17]: 0.1 µg/mL
- IC50, authentic virus neutralization [18]: 0.005 µg/mL
- IC50, authentic virus neutralization [19]: 0.046 µg/mL
- IC50, pseudoviral neutralization [20]: 0.001 µg/mL
- pseudovirus neutralisation IC50 [20]: 0.001 µg/mL
- IC50, pseudoviral neutralization [21]: 0.246 µg/mL
- pseudovirus neutralisation IC50 [21]: 0.246 µg/mL
- IC50, authentic virus neutralization [22]: 7.7 µg/mL
- IC50, pseudoviral neutralization [23]: 1.33 µg/mL
- pseudovirus neutralisation IC50 [23]: 1.33 µg/mL
- IC50, authentic virus neutralization [24]: 6.08 µg/mL
- IC50, pseudoviral neutralization [25]: > 10 µg/mL
- pseudovirus neutralisation IC50 [25]: > 10 µg/mL

Substance: Omi-29 (antibody)
- IC50, pseudoviral neutralization [1]: 0.396 µg/mL
- IC50, pseudoviral neutralization [2]: 0.17 µg/mL
- IC50, pseudoviral neutralization [3]: > 10 µg/mL
- IC50, pseudoviral neutralization [4]: > 10 µg/mL
- IC50, pseudoviral neutralization [5]: 0.025 µg/mL
- IC50, pseudoviral neutralization [6]: 0.014 µg/mL
- IC50, pseudoviral neutralization [7]: 0.056 µg/mL
- IC50, pseudoviral neutralization [8]: > 10 µg/mL
- pseudovirus neutralisation IC50 [26]: > 10 µg/mL
- pseudovirus neutralisation IC50 [27]: 0.056 µg/mL
- IC50, authentic virus neutralization [11]: 0.04 µg/mL
- Authentic virus-IC50 [28]: 0.04 µg/mL
- pseudovirus neutralisation IC50 [12]: 0.396 µg/mL
- IC50, authentic virus neutralization [13]: 0.066 µg/mL
- Authentic virus-IC50 [14]: 0.029 µg/mL
- IC50, authentic virus neutralization [14]: 0.029 µg/mL
- Authentic virus-IC50 [29]: 0.048 µg/mL
- Pseudovirus - IC50 [30]: 0.064 µg/mL
- Authentic virus-IC50 [31]: 0.036 µg/mL
- Pseudovirus - IC50 [32]: 0.056 µg/mL
- Pseudovirus - IC50 [33]: 0.017 µg/mL
- IC50, authentic virus neutralization [15]: 0.036 µg/mL
- pseudovirus neutralisation IC50 [34]: > 10 µg/mL
- pseudovirus neutralisation IC50 [17]: 0.016 µg/mL
- Authentic virus-IC50 [18]: 0.044 µg/mL
- IC50, authentic virus neutralization [18]: 0.044 µg/mL
- IC50, pseudovirus neutralization [18]: 0.014 µg/mL
- Pseudovirus - IC50 [18]: 0.014 µg/mL
- IC50, pseudovirus neutralization [35]: 0.064 µg/mL
- IC50, authentic virus neutralization [19]: 0.048 µg/mL
- pseudovirus neutralisation IC50 [20]: 0.014 µg/mL
- pseudovirus neutralisation IC50 [21]: 0.017 µg/mL
- IC50, pseudovirus neutralization [36]: 0.017 µg/mL
- Authentic virus-IC50 [37]: 0.066 µg/mL
- Pseudovirus - IC50 [38]: 0.016 µg/mL
- IC50, pseudovirus neutralization [39]: 0.396 µg/mL
- IC50, authentic virus neutralization [22]: 0.192 µg/mL
- IC50, pseudovirus neutralization [22]: 0.056 µg/mL
- pseudovirus neutralisation IC50 [23]: 0.056 µg/mL
- IC50, authentic virus neutralization [24]: 0.052 µg/mL
- IC50, pseudovirus neutralization [24]: 0.016 µg/mL
- pseudovirus neutralisation IC50 [25]: 0.064 µg/mL

Substance: Omi-32 (antibody)
- IC50, pseudoviral neutralization [1]: 0.035 µg/mL
- IC50, pseudoviral neutralization [2]: > 10 µg/mL
- IC50, pseudoviral neutralization [3]: 0.354 µg/mL
- IC50, pseudoviral neutralization [4]: > 10 µg/mL
- IC50, pseudoviral neutralization [5]: > 10 µg/mL
- IC50, pseudoviral neutralization [6]: 0.01 µg/mL
- IC50, pseudoviral neutralization [7]: 2.68 µg/mL
- IC50, pseudoviral neutralization [8]: > 10 µg/mL
- pseudovirus neutralisation IC50 [26]: 0.354 µg/mL
- pseudovirus neutralisation IC50 [27]: 2.61 µg/mL
- IC50, authentic virus neutralization [11]: 0.43 µg/mL
- Authentic virus-IC50 [28]: 0.43 µg/mL
- pseudovirus neutralisation IC50 [12]: 0.035 µg/mL
- IC50, authentic virus neutralization [13]: 0.102 µg/mL
- Authentic virus-IC50 [14]: 0.012 µg/mL
- IC50, authentic virus neutralization [14]: 0.012 µg/mL
- Authentic virus-IC50 [29]: 0.46 µg/mL
- Pseudovirus - IC50 [30]: 1.02 µg/mL
- Authentic virus-IC50 [31]: 0.024 µg/mL
- Pseudovirus - IC50 [32]: 2.68 µg/mL
- Pseudovirus - IC50 [33]: 0.017 µg/mL
- IC50, authentic virus neutralization [15]: 0.024 µg/mL
- pseudovirus neutralisation IC50 [34]: 0.354 µg/mL
- pseudovirus neutralisation IC50 [17]: > 10 µg/mL
- Authentic virus-IC50 [18]: 0.032 µg/mL
- IC50, authentic virus neutralization [18]: 0.032 µg/mL
- IC50, pseudovirus neutralization [18]: 0.01 µg/mL
- Pseudovirus - IC50 [18]: 0.01 µg/mL
- IC50, pseudovirus neutralization [35]: 1.02 µg/mL
- IC50, authentic virus neutralization [19]: 0.46 µg/mL
- pseudovirus neutralisation IC50 [20]: 0.01 µg/mL
- pseudovirus neutralisation IC50 [21]: 0.017 µg/mL
- IC50, pseudovirus neutralization [36]: 0.017 µg/mL
- Authentic virus-IC50 [37]: 0.102 µg/mL
- Pseudovirus - IC50 [38]: > 10 µg/mL
- IC50, pseudovirus neutralization [39]: 0.035 µg/mL
- IC50, authentic virus neutralization [22]: 1.9 µg/mL
- IC50, pseudovirus neutralization [22]: 2.68 µg/mL
- pseudovirus neutralisation IC50 [23]: 2.68 µg/mL
- IC50, authentic virus neutralization [24]: 4.64 µg/mL
- IC50, pseudovirus neutralization [24]: > 10 µg/mL
- pseudovirus neutralisation IC50 [25]: 1.02 µg/mL
